This note sets out measurements from paper PMC7115839, “An ATP-responsive metabolic cassette comprised of inositol tris/tetrakisphosphate kinase 1 (ITPK1) and inositol pentakisphosphate 2-kinase (IPK1) buffers diphosphosphoinositol phosphate levels” (Biochemical Journal, 2020).

Substrate in the data set: Nc1ncnc2c1ncn2[C@@H]1O[C@H](COP(=O)(O)OP(=O)(O)OP(=O)(O)O)[C@@H](O)[C@H]1O
Nature of the data set: HPLC of inositol phosphates, Michaelis-Menten fit. Format: biochemical, Arabidopsis thaliana. The settings on record: co-substrate Ins(3,4,5,6)P4 (preferred), 0.08-10 mM ATP, 1 mM MgCl2, HEPES pH 7.5, 25 C.

B1: ITPK1 (AtITPK1) (Arabidopsis thaliana) (protein)
chain: MSDSIQERYLVGYALAAKKQHSFIQPSLIEHSRQRGIDLVKLDPTKSLLEQGKLDCIIHKLYDVYWKENLHEFREKCPGVPVIDLPEAIERLHNRVSMLEVITQLRFPVSDSERFGVPEQVVVMDSSVLSGGGALGELKFPVIAKPLDADGSAKSHKMFLIYDQEGMKILKAPIVLQEFVNHGGVIFKVYVVGDHVKCVKRRSLPDISEEKIGTSKGSLPFSQISNLTAQEDKNIEYGEDRSLEKVEMPPLSFLTDLAKAMRESMGLNLFNFDVIRDAKDANRYLIIDINYFPGYAKMPSYEPVLTEFFWDMVTKKNHV
notes: recombinant in E. coli Rosetta 2(DE3)pLysS, pOPINF, 3C-cleavable His tag (printed as C-terminal); Ni-NTA and Superdex 75
As a reminder, the Km is the concentration of substrate that gives half-maximal velocity. On to B1, for which the Km amounted to 770 ± 190 µM.
